How the values were obtained:
[1] = stability analysis, lyophilized vs solution (DTNB and SEC-HPLC); type: physicochemical
Method: Prior work, e.g. WO 2006/090127, teaches compositions for maintenance of thioredoxin in the reduced state. Significant experimentation was required to derive compositions able to keep thioredoxin reduced during storage, and these compositions were complex and required saccharide derivatives and EDTA as excipients. […] ORP-100 and ORP100S proteins were reduced with 100 mM DTT and exchanged over a NAP-5 column into volatile 20 mM ammonium acetate buffer at pH 5.5 to remove residual reductant. Half of the material was frozen at −80° C. then lyophilized while the remainder was kept in solution at either 5° C. or 40° C. for various time points (“PH5.5”). Lyophilized protein was reconstituted back into 20 mM ammonium acetate pH 5.5 immediately prior to evaluation at each time point (“Lyophilized”). Stability was assessed by measuring both free SH groups (DTNB chromogenic assay) and the percent monomers (SEC-HPLC).
For FIG. 3: PH5.5: ORP-100 or ORP100S protein maintained in liquid formulation of 20 mM ammonium acetate, pH 5.5 for 0, 3, 7, 14, 21, 28, 90, or 180 days. Lyophilized: ORP-100 or ORP100S protein stored in the lyophilized form at 5° C. or 40° C. for the 0, 3, 7, 14, 21, 28, 90, or 180 days and assayed following reconstitution in 20 mM ammonium acetate, pH 5.5. Percent free sulfhydryl (reduction state) at 5° C. Second panel: Percent monomer determined by SEC assay at 5° C. Third panel: Percent free sulfhydryl at 40° C. Fourth panel: Percent monomer determined by SEC assay at 40° C.

[2] = thiol pKa (acid-dissociation constant); type: physicochemical; conditions: verified experimentally, data not shown
From the text: The human CF airway surface liquid is approximately 0.8 pH units more acidic than that of unaffected individuals due to the loss of bicarbonate-mediated buffering of proton secretion (Garland A L, Walton W G, Coakley R D, et al., 2013, Molecular basis for pH-dependent mucosal dehydration in cystic fibrosis airways. PNAS 110:15973-8; Shah V S, Meyerholz D K, Tang X X, et al., 2016, Airway acidification initiates host defense abnormalities in cystic fibrosis mice, Science 351:503-7). This has consequences for the clinical use of reducing agents to treat condensed, abnormal mucus. […] Cys thiol pKa values range from pH 8.5 (cysteamine) to pH 9.5 (NAC). In marked contrast to these classical thiols, the structurally-stabilized pKa of the Trx active site Cys32 is two to three logs lower (pH 6.1-6.3), allowing high activity even at acidic CF airway pH (FIG. 2).

mucins of 4% HBE mucus = assay: mucin molecular weight by GPC-MALLS; type: biochemical, human; conditions: all three concentrations (0.01, 0.1, 1.0 mM), 1 hr at 37° C.; untreated 180 MDa
From the text: Mucus Preparation: Aseptic mucus was harvested from over 100 individual HBE cultures from 20 different CF donors and prepared to four weight-percent (4%) solids, a concentration that typifies chronic obstructive pulmonary disease (COPD) and mild CF (Hill, D. B. et al., 2014, A biophysical basis for mucus solids concentration as a candidate biomarker for airways disease, PloS one 9, e87681; Anderson, W. H. et al., 2015, The relationship of mucus concentration (hydration) to mucus osmotic pressure and transport in chronic bronchitis., Am J Resp Crit Care Med 192: 182-90). […] Creep recovery experiments were performed in which a known stress (between 0.05 and ˜100 Pa) was applied to treated or control mucus for 10 seconds, and the rheological recovery of the fluid was recorded for an additional 50 seconds. […] From the measured parameters the viscosity and elasticity of the fluid were determined as a function of applied stress. […] Mucin molecular weight determination: Molecular weight reduction following test article treatment was determined using a combination of gel-permeation chromatography with multi-angle laser light scattering on a Wyatt Heleos MALLS system. […] Mucin MW was determined by fitting a Berry model to light scattering from 11 different angles using Wyatt Astra software. […]

B1: ORP100S: thioredoxin with monothiol active site, Cys35 and non-active Cys 62, 69 and 73 substituted with serine (SEQ ID NO:29) (protein)
chain: MVKQIESKTAFQEALDAAGDKLVVVDFSATWCGPSKMIKPFFHSLSEKYSNVIFLEVDVDDSQDVASESEVKSMPTFQFFKKGQKVGEFSGANKEKLEATINELV
modifications: synthetic peptide motif
With B1 the “storage stability (free SH, percent monomer)” value ([1]; lyophilized form, six months at 40° C.) was “excellent storage stability”, the “monomer stability by SEC-HPLC vs. ORP-100” value ([1]; particularly first week of storage in liquid formulation) was “slightly better monomer stability” and the “pKa compared to native Trx” value [2] was “same pKa as native Trx”. For the same molecule, the “molecular weight of mucins” value (mucins of 4% HBE mucus) was “ca. 150 MDa”.
